This is an account of results in the RNAGym collection of RNA variant scans (doi:10.7554/elife.80360).

The labels stand for the following.
B1: Twister Ribozyme (parent)
chain: AACACUGCCAAUGCCGGUCCCAAGCCCGGAUAAAAGUGGAGGGGGCGG

The variants in this series derive from B1. Kind of series: self-cleavage, relative activity (ratio to wild type); higher = more cleavage; co-transcriptional.
AACACUGCCAAUGCCGGUCCCAAGCCCGGAUAAAAGUGGAGGGGUCUG: the self-cleavage worked out at 0.386.

For the variant AACACUGCCAAUGCCGGUCCCAAGCCCGGAUAAAAGUGGAGGGGUCCG, the self-cleavage is 0.435.

For the variant AACACUGCCAAUGCCGGUCCCAAGCCCGGAUAAAAGUGGAGGGUGCGG, the self-cleavage came to 0.974.

As to AACACUGCCAAUGCCGGUCCCAAGCCCGGAUAAAAGUGGAGGGCGCGG, the self-cleavage worked out at 0.971.

Consider AACACUGCCAAUGCCGGUCCCAAGCCCGGAUAAAAGUGGAGGGGGCAA, for which the self-cleavage stood at 1.31.

With AACACUGCCAAUGCCGGUCCCAAGCCCGGAUAAAAGUGGAGGGGGCAC, the self-cleavage stood at 0.942.

As to AACACUGCCAAUGCCGGUCCCAAGCCCGGAUAAAAGUGGAGGGUGCUG, the self-cleavage was 0.783.

Consider AACACUGCCAAUGCCGGUCCCAAGCCCGGAUAAAAGUGGAGGGGGUCG, for which the self-cleavage was 1.6.

AACACUGCCAAUGCCGGUCCCAAGCCCGGAUAAAAGUGGAGGGGGUAG: the self-cleavage is 0.874.

For AACACUGCCAAUGCCGGUCCCAAGCCCGGAUAAAAGUGGAGGGGGCAG, the self-cleavage was determined as 0.952.

For the variant AACACUGCCAAUGCCGGUCCCAAGCCCGGAUAAAAGUGGAGGGGGCUG, the self-cleavage was 0.965.

Take AACACUGCCAAUGCCGGUCCCAAGCCCGGAUAAAAGUGGAGGGGGCCG: the self-cleavage came to 0.706.

For the variant AACACUGCCAAUGCCGGUCCCAAGCCCGGAUAAAAGUGGAGGGGAUGG, the self-cleavage is 0.848.

On to AACACUGCCAAUGCCGGUCCCAAGCCCGGAUAAAAGUGGAGGGGAGGG, for which the self-cleavage is 0.856.

On to AACACUGCCAAUGCCGGUCCCAAGCCCGGAUAAAAGUGGAGGGGAAGG, for which the self-cleavage is 0.714.

Regarding AACACUGCCAAUGCCGGUCCCAAGCCCGGAUAAAAGUGGAGGGGGCUA, the self-cleavage was 0.819.

Regarding AACACUGCCAAUGCCGGUCCCAAGCCCGGAUAAAAGUGGAGGGGGCUU, the self-cleavage worked out at 1.57.

For the variant AACACUGCCAAUGCCGGUCCCAAGCCCGGAUAAAAGUGGAGGGGACUG, the self-cleavage came to 0.701.

For AACACUGCCAAUGCCGGUCCCAAGCCCGGAUAAAAGUGGAGGGGACCG, the self-cleavage turned out to be 0.539.

For AACACUGCCAAUGCCGGUCCCAAGCCCGGAUAAAAGUGGAGGGGUCGG, the self-cleavage was 0.902.

Turning to AACACUGCCAAUGCCGGUCCCAAGCCCGGAUAAAAGUGGAGGGGACGG, the self-cleavage stood at 0.939.

Consider AACACUGCCAAUGCCGGUCCCAAGCCCGGAUAAAAGUGGAGGGGCCGG, for which the self-cleavage turned out to be 0.645.

AACACUGCCAAUGCCGGUCCCAAGCCCGGAUAAAAGUGGAGGGGGAGA: the self-cleavage amounted to 0.837.

AACACUGCCAAUGCCGGUCCCAAGCCCGGAUAAAAGUGGAGGGGGAGU: the self-cleavage was determined as 0.889.

AACACUGCCAAUGCCGGUCCCAAGCCCGGAUAAAAGUGGAGGGGGCCA: the self-cleavage came out at 0.666.

For the variant AACACUGCCAAUGCCGGUCCCAAGCCCGGAUAAAAGUGGAGGGCGAGG, the self-cleavage came out at 0.28.

Take AACACUGCCAAUGCCGGUCCCAAGCCCGGAUAAAAGUGGAGGGCGGGG: the self-cleavage is 0.254.

As for AACACUGCCAAUGCCGGUCCCAAGCCCGGAUAAAAGUGGAGGGGCCAG, the self-cleavage was 0.305.

On to AACACUGCCAAUGCCGGUCCCAAGCCCGGAUAAAAGUGGAGGGUGCGU, for which the self-cleavage was determined as 0.545.

With AACACUGCCAAUGCCGGUCCCAAGCCCGGAUAAAAGUGGAGGGUGCGC, the self-cleavage was 0.427.

As for AACACUGCCAAUGCCGGUCCCAAGCCCGGAUAAAAGUGGAGGGCGCUG, the self-cleavage turned out to be 0.244.

As to AACACUGCCAAUGCCGGUCCCAAGCCCGGAUAAAAGUGGAGGGUGUGG, the self-cleavage worked out at 1.02.

With AACACUGCCAAUGCCGGUCCCAAGCCCGGAUAAAAGUGGAGGGUGAGG, the self-cleavage stood at 0.476.

Turning to AACACUGCCAAUGCCGGUCCCAAGCCCGGAUAAAAGUGGAGGGUGGGG, the self-cleavage was 0.728.

Turning to AACACUGCCAAUGCCGGUCCCAAGCCCGGAUAAAAGUGGAGGGGGCGC, the self-cleavage stood at 1.15.

Take AACACUGCCAAUGCCGGUCCCAAGCCCGGAUAAAAGUGGAGGGGGCGU: the self-cleavage was determined as 1.06.

Regarding AACACUGCCAAUGCCGGUCCCAAGCCCGGAUAAAAGUGGAGGGGGCGA, the self-cleavage is 0.986.

AACACUGCCAAUGCCGGUCCCAAGCCCGGAUAAAAGUGGAGGGGGUGU: the self-cleavage came to 1.01.

As to AACACUGCCAAUGCCGGUCCCAAGCCCGGAUAAAAGUGGAGGGGGUGA, the self-cleavage is 0.885.

AACACUGCCAAUGCCGGUCCCAAGCCCGGAUAAAAGUGGAGGGGGGUG: the self-cleavage is 0.728.

Consider AACACUGCCAAUGCCGGUCCCAAGCCCGGAUAAAAGUGGAGGGGGGAG, for which the self-cleavage stood at 0.818.

As to AACACUGCCAAUGCCGGUCCCAAGCCCGGAUAAAAGUGGAGGGCGCGC, the self-cleavage was 0.225.

Turning to AACACUGCCAAUGCCGGUCCCAAGCCCGGAUAAAAGUGGAGGGCGCGU, the self-cleavage turned out to be 0.225.

As for AACACUGCCAAUGCCGGUCCCAAGCCCGGAUAAAAGUGGAGGGAGCGA, the self-cleavage was determined as 0.927.

With AACACUGCCAAUGCCGGUCCCAAGCCCGGAUAAAAGUGGAGGGCACGG, the self-cleavage was found to be 0.762.

AACACUGCCAAUGCCGGUCCCAAGCCCGGAUAAAAGUGGAGGGGACGU: the self-cleavage came out at 0.917.

Regarding AACACUGCCAAUGCCGGUCCCAAGCCCGGAUAAAAGUGGAGGGGACGA, the self-cleavage turned out to be 0.785.

Turning to AACACUGCCAAUGCCGGUCCCAAGCCCGGAUAAAAGUGGAGGGGUAGG, the self-cleavage was 0.595.

In the case of AACACUGCCAAUGCCGGUCCCAAGCCCGGAUAAAAGUGGAGGGUACGG, the self-cleavage is 0.825.

On to AACACUGCCAAUGCCGGUCCCAAGCCCGGAUAAAAGUGGAGGGUUCGG, for which the self-cleavage is 0.922.

On to AACACUGCCAAUGCCGGUCCCAAGCCCGGAUAAAAGUGGAGGGGGAGG, for which the self-cleavage came to 0.927.

For the variant AACACUGCCAAUGCCGGUCCCAAGCCCGGAUAAAAGUGGAGGGGGGGG, the self-cleavage was determined as 0.951.

Turning to AACACUGCCAAUGCCGGUCCCAAGCCCGGAUAAAAGUGGAGGGGGUGG, the self-cleavage is 0.958.

Consider AACACUGCCAAUGCCGGUCCCAAGCCCGGAUAAAAGUGGAGGGGUCGU, for which the self-cleavage came to 0.757.

In the case of AACACUGCCAAUGCCGGUCCCAAGCCCGGAUAAAAGUGGAGGGGUCGA, the self-cleavage was 0.757.

AACACUGCCAAUGCCGGUCCCAAGCCCGGAUAAAAGUGGAGGGGUCGC: the self-cleavage stood at 1.48.

In the case of AACACUGCCAAUGCCGGUCCCAAGCCCGGAUAAAAGUGGAGGGGCAGG, the self-cleavage was 0.564.

As to AACACUGCCAAUGCCGGUCCCAAGCCCGGAUAAAAGUGGAGGGGCGGG, the self-cleavage came out at 1.61.
